T1: monkey C5-mmh (monkey, UniProt P01031 19-1676 (human entry), limits assumed)
T1 construct: recombinant, with C-terminal myc-myc-hexahistidine tag
T1 chain: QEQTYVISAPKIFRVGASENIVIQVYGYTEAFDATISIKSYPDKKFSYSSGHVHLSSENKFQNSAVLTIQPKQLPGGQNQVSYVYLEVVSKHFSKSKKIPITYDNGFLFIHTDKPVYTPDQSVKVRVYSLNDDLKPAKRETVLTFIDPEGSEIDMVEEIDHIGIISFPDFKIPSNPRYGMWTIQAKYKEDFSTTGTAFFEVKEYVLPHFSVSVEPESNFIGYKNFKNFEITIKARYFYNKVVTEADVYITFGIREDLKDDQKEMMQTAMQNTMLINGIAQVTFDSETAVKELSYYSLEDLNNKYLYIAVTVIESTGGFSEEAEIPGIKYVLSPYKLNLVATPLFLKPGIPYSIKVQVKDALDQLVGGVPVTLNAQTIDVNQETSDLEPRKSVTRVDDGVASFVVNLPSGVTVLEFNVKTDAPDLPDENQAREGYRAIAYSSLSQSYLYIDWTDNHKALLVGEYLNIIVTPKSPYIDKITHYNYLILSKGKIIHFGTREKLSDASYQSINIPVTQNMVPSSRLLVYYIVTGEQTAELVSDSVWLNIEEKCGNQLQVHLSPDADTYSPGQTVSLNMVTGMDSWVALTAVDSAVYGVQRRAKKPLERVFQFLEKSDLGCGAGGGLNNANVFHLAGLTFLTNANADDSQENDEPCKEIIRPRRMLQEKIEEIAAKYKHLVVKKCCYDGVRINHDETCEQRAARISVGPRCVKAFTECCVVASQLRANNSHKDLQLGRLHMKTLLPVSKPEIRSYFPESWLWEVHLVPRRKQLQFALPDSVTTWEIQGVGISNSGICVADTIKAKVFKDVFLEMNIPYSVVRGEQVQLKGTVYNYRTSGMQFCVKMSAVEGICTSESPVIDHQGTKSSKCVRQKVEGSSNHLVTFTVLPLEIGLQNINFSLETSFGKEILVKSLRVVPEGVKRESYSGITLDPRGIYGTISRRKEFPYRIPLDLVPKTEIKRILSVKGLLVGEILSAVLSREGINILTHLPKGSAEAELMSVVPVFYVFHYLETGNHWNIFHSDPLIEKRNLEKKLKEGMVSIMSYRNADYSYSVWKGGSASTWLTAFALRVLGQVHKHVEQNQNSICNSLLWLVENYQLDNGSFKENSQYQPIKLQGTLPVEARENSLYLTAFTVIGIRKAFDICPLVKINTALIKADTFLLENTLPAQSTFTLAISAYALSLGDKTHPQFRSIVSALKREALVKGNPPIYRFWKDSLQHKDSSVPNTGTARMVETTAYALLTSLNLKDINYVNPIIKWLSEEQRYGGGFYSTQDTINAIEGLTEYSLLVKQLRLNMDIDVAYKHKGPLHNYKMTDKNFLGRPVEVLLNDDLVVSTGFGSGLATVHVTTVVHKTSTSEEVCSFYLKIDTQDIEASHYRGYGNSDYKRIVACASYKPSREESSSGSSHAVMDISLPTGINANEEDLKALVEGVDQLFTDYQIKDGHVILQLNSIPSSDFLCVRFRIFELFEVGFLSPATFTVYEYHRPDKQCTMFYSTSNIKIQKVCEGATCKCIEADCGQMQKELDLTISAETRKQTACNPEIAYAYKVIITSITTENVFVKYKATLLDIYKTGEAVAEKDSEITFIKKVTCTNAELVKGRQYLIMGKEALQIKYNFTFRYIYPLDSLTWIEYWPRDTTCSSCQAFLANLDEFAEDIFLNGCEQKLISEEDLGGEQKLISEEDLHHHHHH


Tests used:
monkey C5-mmh [1] = molecular target: T1, monkey C5-mmh; assay: SPR (Biacore), mAb captured, dissociation of monkey C5 at pH7.4 vs pH6.0, 25°C
human C5 [2] = molecular target: T2, human C5 (human, UniProt P01031 19-1676); assay: cell-based or functional assay
African green monkey C5 [3] = molecular target: T3, African green monkey C5 (African green monkey); assay: cell-based or functional assay
human C5 [4] = molecular target: T2, human C5; assay: cell-based or functional assay; remark: listed apart in the source
human C5 R885H-mmh = human C5 R885H-mmh (human, UniProt P01031 19-1676); assay: cell-based or functional assay
African green monkey C5 [5] = molecular target: T3, African green monkey C5; assay: cell-based or functional assay; remark: listed apart in the source
human C5 R885C-mmh = human C5 R885C-mmh (human, UniProt P01031 19-1676); assay: cell-based or functional assay
human C5 [6] = molecular target: T2, human C5; assay: SPR (Biacore), mAb captured, dissociation of human C5 at pH7.4 vs pH6.0, 37°C
Method: Effect of pH on the rate of dissociation of recombinant human C5 bound to purified anti-C5 monoclonal antibodies was determined using a real-time surface plasmon resonance biosensor using a Biacore T200 instrument. The Biacore sensor surface was first derivatized by amine coupling with a monoclonal mouse anti-human Fc antibody (GE, # BR-1008-39) to capture anti-C5 monoclonal antibodies expressed with human IgG4 Fc. All Biacore binding studies were performed using two running buffers PBS-T, pH7.4 (0.01M Na₂HPO₄/NaH₂PO₄, 0.15M NaCl, 0.05% v/v Tween-20, adjusted to pH7.4) and PBS-T, pH6.0 (0.01M Na₂HPO₄/NaH₂PO₄, 0.15M NaCl, 0.05% v/v Tween-20, adjusted to pH6.0). […] Binding dissociative half-lives (t %) were calculated from kd as: […]

monkey C5-mmh [7] = molecular target: T1, monkey C5-mmh; assay: SPR (Biacore), mAb captured, dissociation of monkey C5 at pH7.4 vs pH6.0, 37°C
Cynomolgus monkey C5 = Cynomolgus monkey C5 (cynomolgus monkey, UniProt A0A2K5U1T1 19-1676); assay: cell-based or functional assay

| Binder | t½ Ratio pH7.4/pH6.0 (monkey C5-mmh [1]) | Human AP % Max Inhibition, hemolysis assay, NHS (human C5 [2]) [%] | Human AP IC50, hemolysis assay, NHS (human C5 [2]) [nM] | Human CP % Max Inhibition, hemolysis assay, NHS (human C5 [2]) [%] | Human CP IC50, hemolysis assay, NHS (human C5 [2]) [nM] | AGM AP % Max Inhibition, hemolysis assay, 5% serum (African green monkey C5 [3]) [%] | AGM CP % Max Inhibition, hemolysis assay, 5% serum (African green monkey C5 [3]) [%] | AGM Serum AP IC50, hemolysis assay, 5% serum (African green monkey C5 [3]) [nM] | AGM Serum CP IC50, hemolysis assay, 5% serum (African green monkey C5 [3]) [nM] | IC50, inhibition of CDC of Daudi cells, 1.66% human serum (human C5 [4]) [nM] | IC50, inhibition of CDC of Daudi cells, C5 depleted human serum and 6.6 nM C5 Variant R885H (human C5 R885H-mmh) [nM] | IC50, inhibition of CDC of Daudi cells, 1.66% African Green monkey serum (African green monkey C5 [5]) [nM] | IC50, inhibition of CDC of Daudi cells, C5 depleted human serum and 6.6 nM C5 Variant R885C (human C5 R885C-mmh) [nM] | t½ Ratio pH7.4/pH6.0 (human C5 [6]) | t½ Ratio pH7.4/pH6.0 (monkey C5-mmh [7]) | Cyno AP % Max Inhibition, hemolysis assay, 5% serum (Cynomolgus monkey C5) [%] | Cyno CP % Max Inhibition, hemolysis assay, 5% serum (Cynomolgus monkey C5) [%] | Cyno Serum AP IC50, hemolysis assay, 5% serum (Cynomolgus monkey C5) [nM] | Cyno Serum CP IC50, hemolysis assay, 5% serum (Cynomolgus monkey C5) [nM] |
| --- | --- | --- | --- | --- | --- | --- | --- | --- | --- | --- | --- | --- | --- | --- | --- | --- | --- | --- | --- |
| H4H11686N (antibody, human IgG4, V domains shown, tested with H4H prefix (human IgG4 Fc with S108P hinge mutation); also called H2M11686N) VH: QVQLVESGGGLVKPGGSLRLSCAASGFTFSDYYMSWIRQAPGKGLEWVSYISSSGNTIKYADSMKGRFTISRDNAKKSLFVEMNSLRAEDTAVYYCARYKSSSDYFDHWGQGTLVTVSS VL: EIVLTQSPATLSLSPGERATLSCRASQSVRSYLAWYQQKPGQAPRLLIYDASNRATAIPARFSGSGSGTDFTLTISSLEPEDLAVYYCQQSGNWPLTFGGGTKVEIK | 0.37 | 76.2 | 13 | 97.4 | 3.09 | 50.4 | 49.3 | 163 | 48.2 | 1.5 | 1.1 | 4.4 | 0.45 | 0.8 | 0.5 | 98.7 | 94.5 | 9 | 14.1 |
| H4H12163P (antibody, human IgG4, V domains shown, H4H: human IgG4 Fc with S108P hinge mutation) VH: EVQLVESGGDLVQPGGSLRLSCAASGFTFSSYAMNWVRQGPGKGLEWVSAISGRGDSTYYADSVKGRLTISRDNSKNTLYLQMNSLRAEDTAVYYCVKEGEQLVYWYFDLWGRGTLVTVSS VL: DIQMTQSPSSLSASVGDRVTITCRASQTISNFLHWYQQKPGKAPKLLIYAASSLQSGVPSRFSGSGSGTDFTLTISSLQPEDFSTYFCQQSYTTPLTFGGGTKVEIK | 9.7 | 66 | 20.5 | 96.1 | 2.72 | 58.5 | 83.2 | 216 | 69 | 3.4 | 2.1 | 3.7 | 1.1 | 0.8 | 3.3 | 98.5 | 96.4 | 10.2 | 16.5 |
| H4H12167P (antibody, human IgG4, V domains shown, H4H: human IgG4 Fc with S108P hinge mutation) VH: QVQLVESGGGLVKPGGSLRLSCAASGFTFSDSYMSWIRQAPGKGLEWISYIGSSGNTFYYADSVKGRFTISRDNANNLLYLQMTSLRAEDTAVYYCAREEGDFWSAVDSWGQGTLVTVSS VL: DIQLTQSPSFLSASVGDRVTITCWASQGISSYLAWYQQKPGKAPKLLIHTASTLQSGVPSRFSGSGSGTEFTLTISNLQPEDFATYYCQQLNSYPFTFGPGTKVDIK | 9.2 | 64.8 | 15.5 | 99.9 | 3.68 | 53.4 | 90.5 | 69.5 | 69.5 | 2.5 | 1.9 | 3.5 | 1 | 0.2 | 4.4 | 98.3 | 100 | 7.6 | 21.3 |
| H4H12168P (antibody, human IgG4, V domains shown, H4H: human IgG4 Fc with S108P hinge mutation) VH: QVQLVESGGGVVQPGGSLRLSCAASGFTFGGHAMHWVRQAPGKGLEWLAVISSDGSNKQYADSVKGRFTISRDNPKNTLYLQMNSLRVGDTAIYYCAKEVAPRYYYYGLDVWGQGTTVTVSS VL: DIQMTQSPSSLSASVGDRVTITCRASQDISNFLAWYQQKPGKVPKLLIYTASTLQSGVPSRFSGSGSGTDFTLTVSSLQPEDVATYYCQKYAGALTFGPGTKVDIK | 3.8 | 66.2 | 28.5 | 97.5 | 3.33 | 88.2 | 90.8 | 22.5 | 28 | 1.5 | 2.3 | 2 | 0.86 | 1 | 4 | 99.7 | 99 | 5.45 | 10.3 |

Source: US20170355757A1 (Regeneron, published 2017)
